Test [1] deals with T1, human CD28, on Jurkat/IL2 reporter cells or primary human T cells (human, UniProt P10747 19-220).
T1 construct: Endogenous CD28 of Jurkat cells or of primary human T cells
The experiment in a line: flow cytometry on unactivated primary human pan T cells (CD28+), anti-human IgG detection (FIG. 19A). (In flow cytometry, cells or beads pass a laser one at a time.)

The target in test [2] is T2, human PD-L1, expressed on cells (human, UniProt Q9NZQ7 19-290).
T2 construct: On CHO/PD-L1, K562/OKT3/PD-L1 and CHO/OKT3/PD-L1 aAPC, huPD-L1-transduced MC38 cells, or primary human monocytes; also called huPD-L1; hPD-L1
The experiment in a line: flow cytometry on CD14+ monocytes (monocyte-expressed PD-L1) of PBMC cultured overnight with anti-CD3 and anti-CD28 (FIG. 19B).

Test [3] has as its target T3, human PD-L1, expressed on CHO cells (human, UniProt Q9NZQ7 19-290).
T3 construct: Full-length surface expression construct transduced by lentivirus into CHO cells; also called huPD-L1; CD274
In words: flow cytometry on CHO cells stably expressing human PD-L1; PE anti-human Fc.

The target of test [4] is T4, human CTLA-4 (CTLA4), expressed on CHO cells (human, UniProt P16410 36-223).
T4 construct: Full-length surface expression construct transduced by lentivirus into CHO cells; also called huCTLA4
In words: flow cytometry on CHO cells stably expressing human CTLA-4; PE anti-human Fc.

Test [5] deals with T3, human PD-L1, expressed on CHO cells. The experiment in a line: flow cytometry; ratio of MFI on PD-L1 CHO cells to MFI on Jurkat (CD28) cells.
Test [6] has as its target T5, CD28, endogenously expressed on Jurkat/IL2 reporter cells (human, UniProt P10747 19-220).
T5 construct: Endogenous CD28 of Jurkat/IL2 reporter cells
The experiment in a line: flow cytometry on Jurkat/IL2 reporter cells (endogenous CD28); PE anti-human Fc.

The target in test [7] is T3, human PD-L1, expressed on CHO cells. The experiment in a line: flow cytometry on CHO cells stably expressing human PD-L1; MFI relative to WT CD80 ECD-Fc (R&D).
The target of test [8] is T4, human CTLA-4 (CTLA4), expressed on CHO …. In words: flow cytometry on CHO cells stably expressing human CTLA-4; MFI relative to WT CD80 ECD-Fc (R&D).
Test [9] concerns the target T5, CD28, endogenously expressed on …. In words: flow cytometry on Jurkat/IL2 reporter cells (endogenous CD28); MFI relative to WT CD80 ECD-Fc (R&D).
The target of test [10] is T6, CD96 (UniProt P40200 22-585, limits assumed).
T6 construct: whole, on cells
T6 sequence (looked up): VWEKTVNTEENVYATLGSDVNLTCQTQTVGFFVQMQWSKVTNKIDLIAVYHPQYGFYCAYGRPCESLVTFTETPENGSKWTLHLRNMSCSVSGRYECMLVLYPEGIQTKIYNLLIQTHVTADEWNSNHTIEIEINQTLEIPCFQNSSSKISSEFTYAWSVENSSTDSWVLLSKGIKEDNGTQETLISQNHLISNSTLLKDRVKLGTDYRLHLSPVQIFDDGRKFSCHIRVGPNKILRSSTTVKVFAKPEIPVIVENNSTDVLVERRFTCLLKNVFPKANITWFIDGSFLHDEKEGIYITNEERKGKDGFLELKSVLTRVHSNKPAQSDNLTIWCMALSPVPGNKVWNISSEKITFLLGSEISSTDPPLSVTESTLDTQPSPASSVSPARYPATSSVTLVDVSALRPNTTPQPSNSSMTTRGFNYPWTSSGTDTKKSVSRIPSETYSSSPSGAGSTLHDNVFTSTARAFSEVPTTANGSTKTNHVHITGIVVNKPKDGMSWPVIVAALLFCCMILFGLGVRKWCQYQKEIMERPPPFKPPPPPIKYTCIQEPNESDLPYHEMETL
In words: flow cytometry on CD96-expressing cells.

The target of test [11] is T7, CD226 (Homo sapiens (Human), UniProt Q15762 19-336).
T7 construct: also called CD226 tfxn
T7 sequence: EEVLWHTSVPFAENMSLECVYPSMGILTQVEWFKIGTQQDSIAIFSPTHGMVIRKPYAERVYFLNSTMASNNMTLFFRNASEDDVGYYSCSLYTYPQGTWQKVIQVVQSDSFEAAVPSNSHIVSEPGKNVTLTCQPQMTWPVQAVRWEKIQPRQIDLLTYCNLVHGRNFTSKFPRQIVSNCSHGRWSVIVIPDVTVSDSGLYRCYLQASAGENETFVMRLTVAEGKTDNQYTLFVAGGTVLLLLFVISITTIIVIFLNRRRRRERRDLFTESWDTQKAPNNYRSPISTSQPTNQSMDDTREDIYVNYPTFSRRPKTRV
The experiment in a line: flow cytometry on CD226-transfected Expi293 cells.

Test [12] concerns the target T8, TIGIT (Homo sapiens (Human), UniProt Q495A1 23-244).
T8 construct: also called TIGIT tfxn
T8 sequence: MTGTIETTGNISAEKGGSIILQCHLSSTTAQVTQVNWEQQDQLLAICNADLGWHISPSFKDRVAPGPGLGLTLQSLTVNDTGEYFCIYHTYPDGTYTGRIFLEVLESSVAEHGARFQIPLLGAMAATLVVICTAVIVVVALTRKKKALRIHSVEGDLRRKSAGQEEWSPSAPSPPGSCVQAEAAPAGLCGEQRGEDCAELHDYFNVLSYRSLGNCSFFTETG
The experiment in a line: flow cytometry on TIGIT-transfected Expi293 cells.

For test [13], the target named is T6, CD96. The experiment in a line: flow cytometry on CD96-expressing cells; ratio to unmodified CD155 Fc fusion.
In test [14] the target is T7, CD226. The experiment in a line: flow cytometry on CD226-transfected Expi293 cells; ratio to unmodified CD155 Fc fusion.
Test [15] concerns the target T8, TIGIT. In words: flow cytometry on TIGIT-transfected Expi293 cells; ratio to unmodified CD155 Fc fusion.

T3 sequence (Q9NZQ7 19-290): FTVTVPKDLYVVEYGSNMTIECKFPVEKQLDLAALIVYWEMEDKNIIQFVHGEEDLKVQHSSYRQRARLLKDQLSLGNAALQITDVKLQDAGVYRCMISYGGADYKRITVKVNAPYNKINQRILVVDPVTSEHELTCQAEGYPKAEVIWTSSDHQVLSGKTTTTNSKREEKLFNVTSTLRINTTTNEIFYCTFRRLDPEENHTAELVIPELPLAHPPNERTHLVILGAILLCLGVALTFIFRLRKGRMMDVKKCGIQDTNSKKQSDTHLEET
T4 sequence (P16410 36-223): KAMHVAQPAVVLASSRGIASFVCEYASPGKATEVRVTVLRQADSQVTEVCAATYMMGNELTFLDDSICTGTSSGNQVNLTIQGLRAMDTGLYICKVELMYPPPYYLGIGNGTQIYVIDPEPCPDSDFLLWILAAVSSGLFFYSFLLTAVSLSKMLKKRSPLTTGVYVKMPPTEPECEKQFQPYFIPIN
T2 sequence (Q9NZQ7 19-290): as the sequence (Q9NZQ7 19-290) above

B1: CD80 variant E35D/M47V/N48K/V68M/K89N IgV (SEQ ID NO: 2250)-Fc (inert) (Fc fusion)
chain: VIHVTKEVKEVATLSCGHNVSVEELAQTRIYWQKDKKMVLTMMSGDVKIWPEYKNRTIFDITNNLSIMILALRPSDEGTYECVVLKYENDAFKREHLAEVTLSVKADGSGGGGSEPKSSDKTHTCPPCPAPEAEGAPSVFLFPPKPKDTLMISRTPEVTCVVVDVSHEDPEVKFNWYVDGVEVHNAKTKPREEQYNSTYRVVSVLTVLHQDWLNGKEYKCKVSNKALPAPIEKTISKAKGQPREPQVYTLPPSREEMTKNQVSLTCLVKGFYPSDIAVEWESNGQPENNYKTTPPVLDSDGSFFLYSKLTVDKSRWQQGNVFSCSVMHEALHNHYTQKSLSLSPG
notes: also called E35D/M47V/N48K/V68M/K89N CD80 IgV-Fc; CD80 vIgD-Fc
Turning to B1, the binding result in [1] and in test [2] was “binds” in each case.

B2: CD80 variant E35D/D46V/M47L/V68M/L85Q/E88D IgV (SEQ ID NO: 2280)-Fc (inert) (Fc fusion)
chain: VIHVTKEVKEVATLSCGHNVSVEELAQTRIYWQKDKKMVLTMMSGVLNIWPEYKNRTIFDITNNLSIMILALRPSDEGTYECVVQKYDKDAFKREHLAEVTLSVKADGSGGGGSEPKSSDKTHTCPPCPAPEAEGAPSVFLFPPKPKDTLMISRTPEVTCVVVDVSHEDPEVKFNWYVDGVEVHNAKTKPREEQYNSTYRVVSVLTVLHQDWLNGKEYKCKVSNKALPAPIEKTISKAKGQPREPQVYTLPPSREEMTKNQVSLTCLVKGFYPSDIAVEWESNGQPENNYKTTPPVLDSDGSFFLYSKLTVDKSRWQQGNVFSCSVMHEALHNHYTQKSLSLSPG
notes: also called E35D/D46V/M47L/V68M/L85Q/E88D CD80 IgV-Fc; CD80 vIgD-Fc
With B2, the binding result in test [1] and in [2] was “binds” each time.

B3: variant CD80 IgV-Fc E35D/D46E/M47V/V68M/D90G/K93E (Fc fusion, not shown: small tags and cut ends; a dimerising Fc or GST)
chain: VIHVTKEVKEVATLSCGHNVSVEELAQTRIYWQKDKKMVLTMMSGEVNIWPEYKNRTIFDITNNLSIMILALRPSDEGTYECVVLKYEKGAFEREHLAEVTLSVKAD
notes: Fc fusion of the variant IgV
As to B3, the “MFI at 33.3 nM” value worked out at 71900 MFI in test [3], 273000 MFI in test [4] and 27100 MFI in test [6]. Further, the “Ratio of PDL1:CD28” value in test [5] was found to be 3 ratio. Further, the “Fold change to WT CD80” value in [7] turned out to be 6.06 fold; in test [8], 1.74 fold; in test [9], 1.5 fold.

B4: variant CD80 IgV-Fc E35D/M42V/M47V/E52D/L85Q (Fc fusion, not shown: small tags and cut ends; a dimerising Fc or GST)
chain: VIHVTKEVKEVATLSCGHNVSVEELAQTRIYWQKDKKMVLTVMSGDVNIWPDYKNRTIFDITNNLSIVILALRPSDEGTYECVVQKYEKDAFKREHLAEVTLSVKAD
notes: Fc fusion of the variant IgV
Regarding B4, the “MFI at 33.3 nM” value in [3] came to 11900 MFI; in [4], 226000 MFI. The “Ratio of PDL1:CD28” value in test [5] turned out to be 9 ratio. Further, the “Fold change to WT CD80” value came out at 1 fold in test [7] and 1.44 fold in [8].

B5: variant CD80 IgV-Fc E35D/M47L/A71G/L85M/F92Y (Fc fusion, not shown: small tags and cut ends; a dimerising Fc or GST)
chain: VIHVTKEVKEVATLSCGHNVSVEELAQTRIYWQKDKKMVLTMMSGDLNIWPEYKNRTIFDITNNLSIVILGLRPSDEGTYECVVMKYEKDAYKREHLAEVTLSVKAD
notes: Fc fusion of the variant IgV
In the case of B5, the “MFI at 33.3 nM” value is 46700 MFI in test [3], 216000 MFI in [4] and 2460 MFI in test [6]. Moreover, the “Ratio of PDL1:CD28” value in test [5] was 19 ratio. For the same molecule, the “Fold change to WT CD80” value in test [7] amounted to 3.93 fold; in [8], 1.37 fold; in test [9] it was 0.14 fold.

B6: variant CD155 IgV-Fc A81V/L83P (Fc fusion, not shown: a dimerising Fc or GST)
chain: WPPPGTGDVVVQAPTQVPGFLGDSVTLPCYLQVPNMEVTHVSQLTWARHGESGSMAVFHQTQGPSYSESKRLEFVAARLGVEPRNASLRMFGLRVEDEGNYTCLFVTFPQGSRSVDIWLRVL
Regarding B6, the results for the MFI in the test with CD96 [10], with CD226 [11] and with TIGIT [12] were 2620 MFI, 4170 MFI and 2910 MFI, respectively. Moreover, the values for the MFI parental ratio with CD96 [13], in the test with CD226 [14] and in the test with TIGIT [15] were 0.8 fold, 1.1 fold and 1.1 fold, respectively.

B7: variant CD155 IgV-Fc P18L/L79V/F91S (Fc fusion, not shown: a dimerising Fc or GST)
chain: WPPPGTGDVVVQAPTQVLGFLGDSVTLPCYLQVPNMEVTHVSQLTWARHGESGSMAVFHQTQGPSYSESKRLEFVAARVGAELRNASLRMSGLRVEDEGNYTCLFVTFPQGSRSVDIWLRVL
Take B7: the MFI was 3280 MFI in the test with CD96 [10], 5140 MFI in the test with CD226 [11] and 4070 MFI in the test with TIGIT [12]. Besides, the figures for the MFI parental ratio in the test with CD96 [13], in the test with CD226 [14] and with TIGIT [15] were 1.1 fold, 1.4 fold and 1.5 fold, respectively.

B8: variant CD155 IgV-Fc P18T/F91S/R94H (Fc fusion, not shown: a dimerising Fc or GST)
chain: WPPPGTGDVVVQAPTQVTGFLGDSVTLPCYLQVPNMEVTHVSQLTWARHGESGSMAVFHQTQGPSYSESKRLEFVAARLGAELRNASLRMSGLHVEDEGNYTCLFVTFPQGSRSVDIWLRVL
As for B8, the figures for the MFI in the test with CD96 [10], with CD226 [11] and with TIGIT [12] were 2510 MFI, 3590 MFI and 2940 MFI, respectively. Also, the MFI parental ratio with CD96 [13] came to 0.8 fold; with CD226 [14], 1 fold; in the test with TIGIT [15], 1.1 fold.

B9: WT CD80 ECD-Fc (R&D) (Fc fusion)
chain: VIHVTKEVKEVATLSCGHNVSVEELAQTRIYWQKEKKMVLTMMSGDMNIWPEYKNRTIFDITNNLSIVILALRPSDEGTYECVVLKYEKDAFKREHLAEVTLSVKADFPTPSISDFEIPTSNIRRIICSTSGGFPEPHLSWLENGEELNAINTTVSQDPETELYAVSSKLDFNMTTNHSFMCLIKYGHLRVNQTFNWNTTKQEHFPDN
notes: Bought from R&D Systems; also called unmodified CD80-ECD-Fc fusion molecule (R&D Systems, USA); wild-type CD80-ECD-Fc; not shown: Fc and any linker of the bought R&D Systems protein are not described
Regarding B9, the “MFI at 33.3 nM” value in [6] is 18000 MFI.

Values taken from patent publication US20210130436A1 (published 2021).
